Drawing on a protein production outcome set (Wang et al. 2014), this text covers protein production for six sequences.

The series in a line: label from the status in PepcDB records.
As for “MTIPLIIGGVLLAILILLILVFITKYRTVGPDEALIVTGNWLGGGKNVVTTDDGKKIKIIRGGGTFVVPIMQRAEPLSLLNYKLEVGTRDTYTKQGVPVTVNGVSIIKVGSTIEEVSTAAEQYLGKETEELKVEAKEVLEGHLRAILSSMTVEDAYSNREQFAQKVHEVASTDLKKMGLRIVSFTIKEIMDKNGYLDALGQPQIATVKRDATIANAEREKEARIEKARAEKEAKEAEYQRDAQIAEAEKHKELKVQSYKREQEQARADADLSYELQQAKAQQGVTEEQMRVKIIEREKQIELEEKEIARREKQYDAEVKKKADADRYAVEQSAEAEKVKQIKKADADQYKIEAEARARAEEVRVEGLAKAEIEKAQGQAKAEVQKAQGTAEADVIRLKGLAEAEAKQKIAEAFELYGQAAIMDMVLKMLPSYAKEVASPLSNIDKITVVDTGGGGKNSGAGKVAGYATDLMATMQETLKASSGIDLKELLEGFAGKGAVQQLSSDKPVVSVVEDEKKEVEKDKELEHHHHHH”, the protein production result is listed as “failed”. As for “MFERLPVPLSRHERAGPPMPEIGPYTLHTVDTGRFGLDGGAMFGIVPKPLWSQRIEPDEQNRIPLSMRCLLLIGDGRVVLIDTGIGDTFEDTKFQDIFAVDHSGATLEGSLAAHGVAPVDVTDVVLTHLHFDHAGGSTRRIDGEPAVAFPNATYHVQRRHWNWAADPNPKEEQSFRSDTFAPIEEAGQLNLVEGETTLLPHVDVSLVHGHTEAQQTVTVRDDETTLVYVADLLPTTHHLSPAWTMAYDVRPLRTIEEKGEFLEQAADSEWKLFFEHDPEVAVADVERTDRGVQVVNERSLDAL”, the protein production result is “failed”.

Regarding “REVPRCLADLGNGSVHGYRAGRVLSDSGPTGRVGEELMRSFASFFVRTASVPVAELPARPEGWPRDGDTQGFLDWLVHFTERRVHRPNRDRFGALFDAVGVPEDAMARFAAGHRCRAVRPFRLLHTDVHRANVVVRGRRLAVIDWELAILGDPLHDLATHLVRMAYGKEEQGRMVDLWAEAMADAGFTDLTAGLHEDLPVYVAFEYAQSVFPDVMRAAIDLPQ”, the protein production result is on record as “failed”. “MQDIVRKTIDNLNRNHMAGYYTQSIQQLHELLYRLMPEGQTVGCGDSVTLEQSGVYEYVRNHSYNFLDKYRTGLNREEKREIYLQNFRADTFLTGINAVTIDGKLFNIDGNGSRVAPIIYGPKQVIAVVGTNKIVKSVDDAIWRTRQIAAPLDARRLAKETPCVKLAKCIDCHHSQRICNDFVLITGQFEKGRIKVIFIEGDYGY”: the protein production result is recorded as “failed”. As for “MLDPYRRYRHARLIHAVRVALGLIATILLTTGLNLPHGEWASVTMLVVIGGLQHHGNIGKKAAERAIGTLVGAGVGLVLVVQQAYFGHPWLTYLGMSVVCGYFSYHAIGKGGYTALLAAITVFIVAGHGDNQVSDGLWRAVDILIGIALALAFSFAIPLYAVYSWRYNLASALRDCAQLYGRIIKGQSVTDDEHLKLLGRVNSAMLQLRSLMPSVSKEVRISMTELDAIQRNLRMCISTLEILGNTRPDASDPQAMAQMQLALKAEHRQIRVQLIGMARALQSGVTQRLEKSVEGHPENALEAPVYSALDGYRLLTRQLAATLGEMHQRLAKSARHWKI”, the protein production entry was “failed”.

For the sequence “MNKEVDLSVSCLGKVKELKYDVIILPWGATEPHNLHLPYLTDCILPHDIAVEAAELALSRSGVRCMVMPPVPFGAHNPGQRELPFCIHTRYATQQAILEDIVSSLHVQGFRKLLILSGHGGNNFKGMIRDLAFEYPDFLIAAANWFEVVSPKGYFEAEIDDHAGESETSVMMHYHPELVNLAEAGDGESKPFAIASLNEKVAWVPRHWDKATVDSGVGNPKKATAEKGERYVKPIVEKLAGLFEEMAQHDLYE”, the protein production entry is recorded as “not failed”.
